Measurements published in article PMC8938434, “Atomic resolution dynamics of cohesive interactions in phase-separated Nup98 FG domains” (Nature Communications, 2022).

B1: GLFG_(52 × 12) (other)
chain: GLFGNTGGAPAGGLFGNTQTQQGGGLFGQPQQTQGGGLFGQTGATTGGGLFGGATNTAPGGLFGGGGGNPTGGLFGGNNNQQTGGLFGQGTTQTGGGLFGAPQNNQGGGLFGGGTTTTGGGLFGANTQTGGGGLFGGPSQPTTAGLFGSNNPTTGGGLFGQPANTNNGGLFGGQTNNQASGLFGANNQPPTNGLFGNNNKPQTAGLFGGATTTGNTGLFGGANNTGGGGLFGNNTNNPTGGLFGATNPAGGGGLFGGGATTGGGGLFGGGNTQTGGGLFGTANTTTAGGLFGGGNTQPQNGLFGNNNTPATGGLFGQTNNAAPQGLFGGTNNNAASGLFGQKPASANGVLTKPNEKNLCYAISNGTDFCIFELALTQRKLVKAGQLKPGAQAGGLFGQPAQNTQGGLFGGGGAATTPGLFGGAQNNTTGGLFGGQNTQAGGGLFGAPNNAAATGLFGAGNANTQGGLFGAKPAATGGGLFGQPAQTQAGGLFGNTAQPAGGGLFGGATTTPGGGLFGGNTAATGGGLFGGNTQGATGGLFGGQQPNNQGGLFGNTNANTGGGLFGGATTTTGGGLFGGSTGATGGGLFGGASQPAAGGLFGGAAPQQNSGLFGGATAGQTGGLFGGATQQQGGGLFGQTASNPGGGLFGAANATTQPGLFGGNNQAATSC
B2: GXFG//L_(52 × 12) (other)
chain: GGFGNTGLAPAGGTFGNTQLQQGGGQFGQPQLTQGGGAFGQTGLTTGGGNFGGATLTAPGGGFGGGGLNPTGGNFGGNNLQQTGGTFGQGTLQTGGGNFGAPQLNQGGGTFGGGTLTTGGGQFGANTLTGGGGQFGGPSLPTTAGPFGSNNLTTGGGNFGQPALTNNGGNFGGQTLNQASGQFGANNLPPTNGKFGNNNLPQTAGTFGGATLTGNTGNFGGANLTGGGGNFGNNTLNPTGGPFGATNLAGGGGTFGGGALTGGGGTFGGGNLQTGGGTFGTANLTTAGGTFGGGNLQPQNGTFGNNNLPATGGNFGQTNLAAPQGNFGGTNLNAASGAFGQKPLSANGVLTKPNEKNLCYAISNGTDFCIFELALTQRKLVKAGQLKPGAQAGGQFGQPALNTQGGAFGGGGLATTPGNFGGAQLNTTGGTFGGQNLQAGGGNFGAPNLAAATGAFGAGNLNTQGGAFGAKPLATGGGQFGQPALTQAGGQFGNTALPAGGGTFGGATLTPGGGAFGGNTLATGGGQFGGNTLGATGGPFGGQQLNNQGGAFGNTNLNTGGGTFGGATLTTGGGGFGGSTLATGGGQFGGASLPAAGGPFGGAALQQNSGAFGGATLGQTGGQFGGATLQQGGGSFGQTALNPGGGAFGAANLTTQPGQFGGNNLAATTS
B3: GXFG//V_(52 × 12) (other)
chain: GGFGNTGVAPAGGTFGNTQVQQGGGQFGQPQVTQGGGAFGQTGVTTGGGNFGGATVTAPGGGFGGGGVNPTGGNFGGNNVQQTGGTFGQGTVQTGGGNFGAPQVNQGGGTFGGGTVTTGGGQFGANTVTGGGGQFGGPSVPTTAGPFGSNNVTTGGGNFGQPAVTNNGGNFGGQTVNQASGQFGANNVPPTNGKFGNNNVPQTAGTFGGATVTGNTGNFGGANVTGGGGNFGNNTVNPTGGPFGATNVAGGGGTFGGGAVTGGGGTFGGGNVQTGGGTFGTANVTTAGGTFGGGNVQPQNGTFGNNNVPATGGNFGQTNVAAPQGNFGGTNVNAASGAFGQKPVSANGVLTKPNEKNLCYAISNGTDFCIFELALTQRKLVKAGQLKPGAQAGGQFGQPAVNTQGGAFGGGGVATTPGNFGGAQVNTTGGTFGGQNVQAGGGNFGAPNVAAATGAFGAGNVNTQGGAFGAKPVATGGGQFGQPAVTQAGGQFGNTAVPAGGGTFGGATVTPGGGAFGGNTVATGGGQFGGNTVGATGGPFGGQQVNNQGGAFGNTNVNTGGGTFGGATVTTGGGGFGGSTVATGGGQFGGASVPAAGGPFGGAAVQQNSGAFGGATVGQTGGQFGGATVQQGGGSFGQTAVNPGGGAFGAANVTTQPGQFGGNNVAATSC

Molecular target: the molecule itself
Assay: co-sedimentation; centrifugation assay of phase separation of GLFG_(52 × 12) variants at 25 °C, [FG domain] = 10 μM, [NaCl] = 150 mM, 20 mM NaPi pH 6.8, 5 mM DTT; repeated at 100 μM for GAFG, GLLG and GLAG; critical concentration = concentration of the supernatant

Protein	critical concentration for phase separation
B1	0.1 µM
B2	0.8 µM
B3	8 µM
